{"source": "patent US20210340516A1", "about": "“COMPOSITIONS CONTAINING ARGINASE 1 FOR THE TREATMENT OF NEUROVASCULAR AND RETINAL VASCULAR DISORDERS” (Augusta University Research Institute, Inc., priority 2020, published 2021)", "key": {"[1]": {"test_system": "primary rat retinal mixed neurons", "test": "Primary retinal mixed neurons subjected to OGD/R, LDH release assay", "settings": "6 hours OGD and 18 hours reperfusion, ABH 100 μM at reoxygenation", "experimental": "Retinas from ten pups were collected and washed twice with ice-cold 1×PBS. They were digested with 0.5% trypsin for 3-4 min at 37° C., followed by trypsin inactivation with the culture medium, DMEM/F12 (Gibco, Grand Island, N.Y.) plus 10% FBS and 1% Penicillin-Streptomycin (P/S) solution (Invitrogen, Grand Island, N.Y.). The retina tissue was mechanically dissociated by pipetting several times until cells were dispersed. Cells were then filtered through a 40 μm nylon-mesh filter, collected by centrifugation at 1000 rpm for 10 min, re-suspended in culture medium, and plated in 6 or 12 well-cell culture plates (Corning, Corning, N.Y.) coated with Poly-D-lysine hydrobromide (PDL, Sigma) at a density of 0.5×10^6 cells/mL. The plates were maintained in a humidified CO2 incubator at 37° C. and 5% CO2. At days 1, 2, and 3 in vitro (DIV), half of the medium was aspirated and replaced with Neurobasal A medium containing 1×B-27 (GIBCO), 1× glutaMAX (GIBCO) and 1% P/S. Experiments were conducted at DIV 6."}, "[2]": {"settings": "native enzyme, comparison; cited from earlier work"}, "[3]": {"test_system": "mouse model of acute retinal ischemia", "settings": "intravitreal injection (Fouda 2018); cited from earlier work"}}}
{"molecule": "N[C@@H](CCCCB(O)O)C(=O)O", "note": "[ABH, 2(S)-amino-6-boronohexanoic acid, reference compound]", "values": [{"measurement": "cell death (LDH release)", "setting": "[1]", "result": "trend towards increased cell death"}]}
{"molecule": "native enzyme: native, non-PEGylated arginase, compared with PEG-A1 for half-life (protein, UniProt P05089 1-322, looked up) Arginase-1: MSAKSRTIGIIGAPFSKGQPRGGVEEGPTVLRKAGLLEKLKEQECDVKDYGDLPFADIPNDSPFQIVKNPRSVGKASEQLAGKVAEVKKNGRISLVLGGDHSLAIGSISGHARVHPDLGVIWVDAHTDINTPLTTTSGNLHGQPVSFLLKELKGKIPDVPGFSWVTPCISAKDIVYIGLRDVDPGEHYILKTLGIKYFSMTEVDRLGIGKVMEETLSYLLGRKKRPIHLSFDVDGLDPSFTPATGTPVVGGLTYREGLYITEEIYKTGLLSGLDIMEVNPSLGKTPEEVTRTVNTAVAITLACFGLAREGNHKPIDYLNPPK", "values": [{"measurement": "half-life in vivo", "setting": "[2]", "result": "a few minutes"}]}
{"molecule": "A1: arginase 1 given by intravitreal injection in an earlier study (Fouda 2018) (protein, UniProt P05089 1-322, looked up) Arginase-1: MSAKSRTIGIIGAPFSKGQPRGGVEEGPTVLRKAGLLEKLKEQECDVKDYGDLPFADIPNDSPFQIVKNPRSVGKASEQLAGKVAEVKKNGRISLVLGGDHSLAIGSISGHARVHPDLGVIWVDAHTDINTPLTTTSGNLHGQPVSFLLKELKGKIPDVPGFSWVTPCISAKDIVYIGLRDVDPGEHYILKTLGIKYFSMTEVDRLGIGKVMEETLSYLLGRKKRPIHLSFDVDGLDPSFTPATGTPVVGGLTYREGLYITEEIYKTGLLSGLDIMEVNPSLGKTPEEVTRTVNTAVAITLACFGLAREGNHKPIDYLNPPK", "values": [{"measurement": "neuroprotection in acute retinal ischemia", "setting": "[3]", "result": "showed neuroprotection"}]}
